Measurements as given in PMC4354923, “FTO is necessary for the induction of leptin resistance by high-fat feeding” (Molecular Metabolism, 2015).

Biological target: Myc-tagged full length FTO (UniProt Q9C0B1 1-505)
Test: cell-based or functional assay

Sequence of Myc-tagged full length FTO (Q9C0B1 whole entry): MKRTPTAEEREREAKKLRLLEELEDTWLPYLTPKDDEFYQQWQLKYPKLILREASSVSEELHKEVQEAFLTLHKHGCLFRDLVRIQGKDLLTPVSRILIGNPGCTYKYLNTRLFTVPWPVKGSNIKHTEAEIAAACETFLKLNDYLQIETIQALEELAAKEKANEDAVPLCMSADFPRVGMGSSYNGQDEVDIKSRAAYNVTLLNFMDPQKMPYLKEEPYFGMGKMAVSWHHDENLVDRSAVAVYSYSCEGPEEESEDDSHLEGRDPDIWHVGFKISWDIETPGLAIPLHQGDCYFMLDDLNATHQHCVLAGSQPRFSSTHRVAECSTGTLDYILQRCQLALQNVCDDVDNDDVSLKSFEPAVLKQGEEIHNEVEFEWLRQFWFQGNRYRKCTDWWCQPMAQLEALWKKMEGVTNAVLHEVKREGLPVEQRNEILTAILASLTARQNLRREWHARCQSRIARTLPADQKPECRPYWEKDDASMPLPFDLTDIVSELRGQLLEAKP

NFκB-responsive firefly luciferase reporter (normalised to renilla) in Fto null MEFs co-transfected with a TRIP4 expression construct and Myc-tagged full length FTO: ≤ 5 fold
B1: Thyroid receptor interacting protein 4 (TRIP4), in HEK293 cell extract (natural protein, human (endogenous in HEK293), UniProt Q15650 1-581, looked up)
chain: MAVAGAVSGEPLVHWCTQQLRKTFGLDVSEEIIQYVLSIESAEEIREYVTDLLQGNEGKKGQFIEELITKWQKNDQELISDPLQQCFKKDEILDGQKSGDHLKRGRKKGRNRQEVPAFTEPDTTAEVKTPFDLAKAQENSNSVKKKTKFVNLYTREGQDRLAVLLPGRHPCDCLGQKHKLINNCLICGRIVCEQEGSGPCLFCGTLVCTHEEQDILQRDSNKSQKLLKKLMSGVENSGKVDISTKDLLPHQELRIKSGLEKAIKHKDKLLEFDRTSIRRTQVIDDESDYFASDSNQWLSKLERETLQKREEELRELRHASRLSKKVTIDFAGRKILEEENSLAEYHSRLDETIQAIANGTLNQPLTKLDRSSEEPLGVLVNPNMYQSPPQWVDHTGAASQKKAFRSSGFGLEFNSFQHQLRIQDQEFQEGFDGGWCLSVHQPWASLLVRGIKRVEGRSWYTPHRGRLWIAATAKKPSPQEVSELQATYRLLRGKDVEFPNDYPSGCLLGCVDLIDCLSQKQFKEQFPDISQESDSPFVFICKNPQEMVVKFPIKGNPKIWKLDSKIHQGAKKGLMKQNKAV
